Test [1] has as its target T1, human_HER3(1242-1267)-Bi-PEG-amide (human, C-terminal Bi-PEG-amide (biotin); singly grafted on streptavidin).
T1 construct: Injected as analyte, singly grafted on streptavidin
T1 peptide: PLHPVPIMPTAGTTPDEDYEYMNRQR
As to the kind of experiment: SPR kinetic screening (Biacore A100), mAb captured by anti-mouse IgG Fc, peptide singly grafted on streptavidin injected. On the technique in general: SPR reads the build-up and loss of mass on a sensor chip optically.
Description: A Biacore™ A100 instrument under control of the software version V1.1 is used. A Biacore™ CM5 chip is mounted into the instrument and is hydrodynamically addressed conditioned according to the manufacturer's instructions. As a running buffer an HBS-EP buffer is used (10 mM HEPES (pH 7.4), 150 mM NaCl, 1 mM EDTA, 0.05% (w/v) P20). A polyclonal rabbit anti-mouse IgG Fc capture antibody is immobilized at 30 μg/ml in 10 mM sodium acetate buffer (pH 4.5) to spots 1, 2, 4 and 5 in flow cells 1, 2, 3 and 4 at 10,000 RU. The antibody is covalently immobilized via NHS/EDC chemistry. The sensor is deactivated thereafter with a 1 M ethanolamine solution. Spots 1 and 5 are used for the determination and spots 2 and 4 are used as reference. Prior to application to the sensor chip the hybridoma supernatants containing mAbs are diluted 1:2 in HBS-EP buffer. The diluted solution is applied at a flow rate of 30 μl/min for 1 min. […] Thereafter, the signal is recorded for 5 min dissociation time. The sensor is regenerated by injecting a 10 mM glycine-HCl solution (pH 1.7) for 2 min, at a flow rate of 30 μl/min. The dissociation rate constant kd (1/s) is calculated according to a Langmuir model using the evaluation software according to the manufacturer's instructions.

Test [2] concerns the target T2, IGF-1R(1340-1366)[1346-pTyr]amid, phosphorylated IGF-1R peptide (phosphotyrosine at 1346 (IGF-1R numbering); C-terminal amide; in Examples 2.6 and 2.7 a biotinylated PEG-linker bound via glutamic acid at position 1340).
T2 construct: also called pIGF-1R peptide; pIGF-1R
T2 peptide: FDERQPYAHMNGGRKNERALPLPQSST
Description: SPR (Biacore 3000, 25 C), dual binder on biotinylated linker on SA chip, peptide injected; T40 linker (linker 10, spacer T20-Biotin-dT-T20).

Test [3] deals with T2, IGF-1R(1340-1366)[1346-pTyr]amid, …. As to the kind of experiment: SPR (Biacore 3000, SA sensor, 25 C): both ssFab' hybridized on the immobilized biotinylated T40-Bi linker, peptide injected as analyte.
Description: (§1) As a control, buffer was injected instead of the ssFabs.
(§2) The system was regenerated after each concentration step with a 12 sec pulse of 250 mM NaOH and was reloaded with ssFab′ ligand.
Test [4] deals with T3, IGF-1R(1340-1366)amid, non-phosphorylated IGF-1R peptide (C-terminal amide; in Example 2.6 a biotinylated PEG-linker bound via glutamic acid at position 1340).
T3 construct: also called Glu(Bi-PEG-1340]amid
T3 peptide: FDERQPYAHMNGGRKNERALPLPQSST
The description is as above.
Description: as §1, §2

The target in test [5] is T2, IGF-1R(1340-1366)[1346-pTyr]amid, …. As to the kind of experiment: SPR sandwich assay (Biacore T100, 13 C), FIG. 7.
Description: A Biacore™ T100 instrument (GE Healthcare) was used with a Biacore™ CM5 sensor mounted into the system. The sensor was preconditioned by a 1 min injection at 100 μl/min of 0.1% SDS, 50 mM NaOH, 10 mM HCl and 100 mM H3PO4.
The Biacore™ T100 System was driven under the control software V1.1.1. Polyclonal rabbit IgG antibody <IgGFCγM>R (Jackson ImmunoResearch Laboratories Inc.) at 30 μg/ml in 10 mM Na-Acetate pH 4.5 was immobilized at 10 000 RU on the flow cells 1, 2, 3, and 4, respectively, via EDC/NHS chemistry according to the manufacturer's instructions. Finally, the sensor surface was blocked with 1M ethanolamine. The complete experiment was driven at 13° C.
3 μM of an IgG fragment mixture (of IgG classes IgG1, IgG2a, IgG2b, IgG3) containing blocking solution was injected at 30 μl/min for 5 min.
Test [6] has as its target T4, IR (insulin receptor) in untreated IR overexpressing 3T3 cells (UniProt P06213 28-1382, limits assumed).
T4 construct: whole, on cells; also called IR (unstimulated)
As to the kind of experiment: IHC (Ventana BenchMark XT), ssFab' on 8xC18 linker, FFPE 3T3 cells.
Description: (§3) In order to test the specificity of the anti-pIGF-1R dual binder molecule an elaborate test system based on formalin-fixed paraffin-embedded (FFPE) 3T3 cells was used. 3T3 cells had been stably transfected with either IGF-1R or IR expression vectors. Cells were fixed with formalin and embedded in paraffin according to standard protocols. Prior to fixation cells were stimulated with 100 ng/ml of either IGF-1 or Insulin to induce IGF1-R or IR phosphorylation or were left untreated.
(§4) A biotin label within the linker molecule served as a detection tag for the streptavidin-based Ventana iVIEW DAB detection kit.

In test [7] the target is T5, phosphorylated IR in IR overexpressing 3T3 cells stimulated with Insulin (UniProt P06213 28-1382, limits assumed, phosphorylated after stimulation with 100 ng/ml Insulin).
T5 construct: whole, on cells; also called pIR (cells)
The description is as above.
Description: as §3, §4

Test [8] deals with T2, IGF-1R(1340-1366)[1346-pTyr]amid, …. Description: SPR (Biacore 2000, 25 C), biotinylated peptide on SA chip, 100 nM ssFab' injected.
Description: (§5) 100 nM of analyte (i.e. in these experiments a bi-valent dual binding agent) in solution was injected at 50 μl/min for 240 sec association time and dissociation was monitored for 500 sec. Efficient regeneration was achieved by using a 1 min injection step at 50 μl/min with 80 mM NaOH. Flow cell 1 served as a reference. A blank buffer injection was used instead of an antigen injection to double reference the data by buffer signal subtraction.
(§6) (The digoxigenylation of the middle thymidine (T(-Dig)) in the above linkers is without relevance to these experiments.)
(§7) Report points were set at the end of the analyte association phase (Binding Late, BL) and at the end of the analyte dissociation phase (Stability Late, SL) to monitor the response unit signal heights of each interaction. The dissociation rates kd (1/s) were calculated according to a linear 1:1 Langmuir fit using the Biacore™ evaluation software 4.1. The complex halftimes in minutes were calculated upon the formula In(2)/(60*kd).
The target in test [9] is T3, IGF-1R(1340-1366)amid, …. The test is described as above.
Description: as §5, §6, §7
The target in test [10] is T2, IGF-1R(1340-1366)[1346-pTyr]amid, …. As to the kind of experiment: SPR (Biacore 3000, SA sensor, 25 C): only ssFab' 1.4.168 hybridized on the immobilized biotinylated T0-Bi linker, peptide injected as analyte.
Description: as §1, §2
Test [11] has as its target T3, IGF-1R(1340-1366)amid, …. The test is described as above.
Description: as §1, §2
Test [12] addresses T2, IGF-1R(1340-1366)[1346-pTyr]amid, …. As to the kind of experiment: SPR (Biacore 3000, SA sensor, 25 C): only ssFab' 1.4.168 hybridized on the immobilized biotinylated T40-Bi linker, peptide injected as analyte.
Description: as §1, §2
Test [13] concerns the target T3, IGF-1R(1340-1366)amid, …. The test is described as above.
Description: as §1, §2
Test [14] deals with T2, IGF-1R(1340-1366)[1346-pTyr]amid, …. As to the kind of experiment: SPR (Biacore 3000, SA sensor, 25 C): only ssFab' 1.4.168 hybridized on the immobilized biotinylated 8xC18 linker, pIGF-1R peptide injected as analyte.
Description: 89 RU amino-PEO-biotin were captured on the reference flow cell 1.
The system was regenerated after each concentration step with a 12 sec pulse of 250 mM NaOH and was reloaded with ssFab ligand.
The target is the same in test [15]. Description: SPR (Biacore 3000, 25 C), dual binder on biotinylated linker on SA chip, peptide injected; T0 linker (no spacer).
For test [16] the target is unchanged. Description: SPR (Biacore 3000, SA sensor, 25 C): both ssFab' hybridized on the immobilized biotinylated T0-Bi linker, peptide injected as analyte.
Description: as §1, §2
Test [17] has as its target T3, IGF-1R(1340-1366)amid, …. Described as above.
Description: as §1, §2
The target of test [18] is T6, IGF-1R in untreated IGF-1R overexpressing 3T3 cells (UniProt P08069 31-1367, limits assumed).
T6 construct: whole, on cells; also called IGF-1R (unstimulated)
Description: IHC (Ventana BenchMark XT), ssFab' on 8xC18 linker, FFPE 3T3 cells.
Description: as §3, §4

Values joined by “and” are separate entries in the source; they are usually repeats but may differ in a detail not shown here. Equal entries are not always repeated.

T4 sequence (P06213 28-1382 limits assumed): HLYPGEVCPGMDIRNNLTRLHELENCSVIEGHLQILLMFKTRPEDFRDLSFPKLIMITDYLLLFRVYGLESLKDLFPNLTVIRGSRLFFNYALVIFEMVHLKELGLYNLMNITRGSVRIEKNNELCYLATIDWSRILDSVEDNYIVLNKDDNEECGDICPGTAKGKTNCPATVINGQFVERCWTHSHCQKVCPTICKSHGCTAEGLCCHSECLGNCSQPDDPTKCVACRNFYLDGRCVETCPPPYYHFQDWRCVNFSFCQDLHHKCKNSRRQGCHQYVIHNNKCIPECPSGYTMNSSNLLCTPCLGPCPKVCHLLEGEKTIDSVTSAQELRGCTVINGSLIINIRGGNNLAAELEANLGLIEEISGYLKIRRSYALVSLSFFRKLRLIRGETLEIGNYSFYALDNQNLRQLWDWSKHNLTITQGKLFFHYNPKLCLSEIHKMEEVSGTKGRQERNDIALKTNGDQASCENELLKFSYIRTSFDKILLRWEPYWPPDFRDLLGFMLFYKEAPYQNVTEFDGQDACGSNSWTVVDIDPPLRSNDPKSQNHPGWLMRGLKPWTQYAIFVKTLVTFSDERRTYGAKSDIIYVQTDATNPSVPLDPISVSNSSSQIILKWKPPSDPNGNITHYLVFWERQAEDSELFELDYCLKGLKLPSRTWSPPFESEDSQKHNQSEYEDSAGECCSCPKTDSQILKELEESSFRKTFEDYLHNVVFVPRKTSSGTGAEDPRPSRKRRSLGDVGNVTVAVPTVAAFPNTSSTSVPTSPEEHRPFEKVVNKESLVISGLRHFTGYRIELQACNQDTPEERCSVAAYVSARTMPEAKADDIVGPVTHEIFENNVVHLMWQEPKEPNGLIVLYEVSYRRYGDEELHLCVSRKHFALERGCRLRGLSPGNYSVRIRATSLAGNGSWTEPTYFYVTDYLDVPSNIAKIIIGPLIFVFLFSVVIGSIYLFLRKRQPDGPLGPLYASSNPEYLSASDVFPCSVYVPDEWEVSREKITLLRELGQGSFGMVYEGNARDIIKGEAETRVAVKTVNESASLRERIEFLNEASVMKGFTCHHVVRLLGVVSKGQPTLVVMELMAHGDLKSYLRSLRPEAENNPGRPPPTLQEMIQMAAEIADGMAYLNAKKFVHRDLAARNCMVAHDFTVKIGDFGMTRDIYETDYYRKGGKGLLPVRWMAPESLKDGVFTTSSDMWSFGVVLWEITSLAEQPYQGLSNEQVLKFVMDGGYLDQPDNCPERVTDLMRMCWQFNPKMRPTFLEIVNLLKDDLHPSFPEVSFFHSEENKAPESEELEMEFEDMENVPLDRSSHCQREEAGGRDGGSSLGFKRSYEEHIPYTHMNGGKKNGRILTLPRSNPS
T5 sequence (P06213 28-1382 limits assumed): as above
T6 sequence (P08069 31-1367 limits assumed): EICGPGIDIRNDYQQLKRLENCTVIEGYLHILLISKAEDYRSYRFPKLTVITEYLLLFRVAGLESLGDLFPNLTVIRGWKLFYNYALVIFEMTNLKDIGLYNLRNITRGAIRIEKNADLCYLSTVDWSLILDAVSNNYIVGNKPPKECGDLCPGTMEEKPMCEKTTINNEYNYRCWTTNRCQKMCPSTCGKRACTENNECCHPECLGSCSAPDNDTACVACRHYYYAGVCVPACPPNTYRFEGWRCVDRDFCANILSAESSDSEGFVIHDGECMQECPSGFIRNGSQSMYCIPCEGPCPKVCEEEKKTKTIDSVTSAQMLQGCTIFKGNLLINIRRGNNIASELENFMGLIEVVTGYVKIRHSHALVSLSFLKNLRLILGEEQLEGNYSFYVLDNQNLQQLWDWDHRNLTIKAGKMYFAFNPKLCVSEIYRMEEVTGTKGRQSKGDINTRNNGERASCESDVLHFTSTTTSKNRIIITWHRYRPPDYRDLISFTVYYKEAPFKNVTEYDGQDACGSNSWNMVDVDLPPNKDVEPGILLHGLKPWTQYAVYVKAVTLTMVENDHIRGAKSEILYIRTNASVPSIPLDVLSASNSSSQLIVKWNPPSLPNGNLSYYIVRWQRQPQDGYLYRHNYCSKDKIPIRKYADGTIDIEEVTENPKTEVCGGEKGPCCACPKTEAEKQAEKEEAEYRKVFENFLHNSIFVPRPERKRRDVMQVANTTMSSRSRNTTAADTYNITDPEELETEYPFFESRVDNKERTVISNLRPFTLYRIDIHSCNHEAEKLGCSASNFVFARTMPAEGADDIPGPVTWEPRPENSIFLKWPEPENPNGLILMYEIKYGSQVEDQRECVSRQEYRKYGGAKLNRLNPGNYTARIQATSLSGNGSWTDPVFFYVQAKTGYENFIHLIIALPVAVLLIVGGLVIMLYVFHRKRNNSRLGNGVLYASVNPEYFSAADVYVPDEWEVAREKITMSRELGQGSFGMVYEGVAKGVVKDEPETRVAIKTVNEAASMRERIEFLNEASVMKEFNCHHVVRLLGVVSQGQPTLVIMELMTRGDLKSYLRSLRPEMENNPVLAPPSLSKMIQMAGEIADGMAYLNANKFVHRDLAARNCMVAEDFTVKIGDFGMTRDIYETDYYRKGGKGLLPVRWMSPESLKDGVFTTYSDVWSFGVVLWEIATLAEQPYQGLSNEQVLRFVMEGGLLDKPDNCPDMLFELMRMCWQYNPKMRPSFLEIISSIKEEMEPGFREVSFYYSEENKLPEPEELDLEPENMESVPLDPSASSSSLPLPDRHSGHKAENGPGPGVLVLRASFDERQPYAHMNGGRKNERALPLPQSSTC

B1: monoclonal antibody 7.2.32 directed against HER3(1242-1267) (antibody, V domains shown)
VH: EVQLQESGGGLVQPKGSLQLSCAASGFTFNTYAMHWVRQAPGKGLEWVARIRTESSDYATDYADSVKDRFIISRDDSQNMLYLQMNNLKSEDTAIYYCVRSSGFDYWGQGTTLTVSS
VL: DIQMTQSPSLPVSLGDQASISCRSSQSLVHDNGNTYLHWFLQKPGQSPKLLIYKVSNRFSGVPDRFGGSGSGTDFTLKISGVEAEDLGVYFCSQGTHVPTFGGGTKLEIK
notes: Mouse monoclonal IgG from hybridoma supernatant, captured by anti-mouse IgG Fc; also called mAb 7.2.32
For B1, the koff in test [1] was 0.0023 s⁻¹.

B2: T40-T-Bi linker dual binder with ssFab' 8.1.2 and ssFab' 1.4.168 (linker 10 of example 2.4) (bispecific antibody, V domains shown)
VH 1: EVQLQQSGPALVKPGASVKMSCKASGFTFTSYVIHWVKQKPGQGLEWIGYLNPYNDNTKYNEKFKGKATLTSDRSSSTVYMEFSSLTSEDSAVYFCARRGIYAYDHYFDYWGQGTSLTVSS
VL 1: QIVLTQSPAIMSASPGEKVTLTCSASSSVNYMYWYQQKPGSSPRLLIYDTSNLASGVPVRFSGSGSVTSYSLTISRMEAEDAATYYCQQWSTYPLTFGAGTKLELK
VH 2: QCDVKLVESGGGLVKPGGSLKLSCAASGFTFSDYPMSWVRQTPEKRLEWVATITTGGTYTYYPDSIKGRFTISRDNAKNTLYLQMGSLQSEDAAMYYCTRVKTDLWWGLAYWGQGTLVTVSA
VL 2: QLVLTQSSSASFSLGASAKLTCTLSSQHSTYTIEWYQQQPLKPPKYVMELKKDGSHTTGDGIPDRFSGSSSGADRYLSISNIQPEDESIYICGVGDTIKEQFVYVFGGGTKVTVLG
modifications: 17 mer ssDNA (SEQ ID NO:6, fluorescein) on hinge cysteine; 19 mer ssDNA (SEQ ID NO:5, Cy5) on hinge cysteine
notes: Two Fab'-ssDNA conjugates hybridised on biotinylated 77-mer DNA linker 10 (T20-Biotin-dT-T20) captured on a streptavidin chip; also called T40-Bi
On to B2, for which the Kd in test [2] is 0.01 nM; in [3], 0.0125 nM; in test [4], 0.973 nM and 1 nM. The molecule also displayed a t1/2 diss in test [4] of 4.3 min.

B3: murine monoclonal antibody M-1.4.168-IgG (antibody, V domains shown)
VH: DVKLVESGGGLVKPGGSLKLSCAASGFTFSDYPMSWVRQTPEKRLEWVATITTGGTYTYYPDSIKGRFTISRDNAKNTLYLQMGSLQSEDAAMYYCTRVKTDLWWGLAYWGQGTLVTVSA
VL: QLVLTQSSSASFSLGASAKLTCTLSSQHSTYTIEWYQQQPLKPPKYVMELKKDGSHTTGDGIPDRFSGSSSGADRYLSISNIQPEDESIYICGVGDTIKEQFVYVFGGGTKVTVLG
notes: Whole murine IgG from hybridoma; also called mAb 1.4.168; M-1.004.168-IgG
B3: in [5], the binding result is on record as “binds”.

B4: ssFab' 1.4.168 (Fab' of mAb 1.4.168 covalently linked to 17 mer ssDNA) (Fab, V domains shown)
VH: DVKLVESGGGLVKPGGSLKLSCAASGFTFSDYPMSWVRQTPEKRLEWVATITTGGTYTYYPDSIKGRFTISRDNAKNTLYLQMGSLQSEDAAMYYCTRVKTDLWWGLAYWGQGTLVTVSA
VL: QLVLTQSSSASFSLGASAKLTCTLSSQHSTYTIEWYQQQPLKPPKYVMELKKDGSHTTGDGIPDRFSGSSSGADRYLSISNIQPEDESIYICGVGDTIKEQFVYVFGGGTKVTVLG
modifications: 17 mer ssDNA comprising SEQ ID NO:6 with fluorescein, coupled through maleimide to a cysteine of the Fab' hinge region
notes: Fab' from pepsin cleavage and cysteamine reduction of a murine monoclonal IgG; also called ssFab' 1.004.168; fluorescein-ssFab' 1.4.168
As to B4, the binding result in test [6] and in test [7] was “no binding (tested: 0.5 µg/ml)” throughout. Moreover, the T1/2 dis in test [8] and in test [9] was 3 min throughout. Besides, the Kd was 2.59 nM and 3 nM in [10]; 1.35 nM and 1 nM in test [11]; 2.14 nM and 2 nM in test [12]; 1.1 nM and 1 nM in [13]; 2.96 nM and 3 nM in [14]. Further, the t1/2 diss came out at 4 min in test [10], 4 min in test [11] and 3 min in [13].

B5: T0 dual binding agent with ssFab' 8.1.2 and ssFab' 1.4.168 on the biotinylated T0-Bi 37-mer ssDNA-Linker (linker 17 of example 2.4) (bispecific antibody, V domains shown)
VH 1: EVQLQQSGPALVKPGASVKMSCKASGFTFTSYVIHWVKQKPGQGLEWIGYLNPYNDNTKYNEKFKGKATLTSDRSSSTVYMEFSSLTSEDSAVYFCARRGIYAYDHYFDYWGQGTSLTVSS
VL 1: QIVLTQSPAIMSASPGEKVTLTCSASSSVNYMYWYQQKPGSSPRLLIYDTSNLASGVPVRFSGSGSVTSYSLTISRMEAEDAATYYCQQWSTYPLTFGAGTKLELK
VH 2: QCDVKLVESGGGLVKPGGSLKLSCAASGFTFSDYPMSWVRQTPEKRLEWVATITTGGTYTYYPDSIKGRFTISRDNAKNTLYLQMGSLQSEDAAMYYCTRVKTDLWWGLAYWGQGTLVTVSA
VL 2: QLVLTQSSSASFSLGASAKLTCTLSSQHSTYTIEWYQQQPLKPPKYVMELKKDGSHTTGDGIPDRFSGSSSGADRYLSISNIQPEDESIYICGVGDTIKEQFVYVFGGGTKVTVLG
modifications: 17 mer ssDNA (SEQ ID NO:6, fluorescein) on hinge cysteine; 19 mer ssDNA (SEQ ID NO:5, Cy5) on hinge cysteine
B5: the Kd in test [15] is 0.03 nM; in test [16], 0.0344 nM; in test [17] it was 1.2 nM and 1 nM. This molecule also returned a t1/2 diss in [17] of 5 min.

B6: ssFab' 30.4.33 (Fab' of mAb 30.4.33 linked to ssDNA) (Fab, V domains shown)
VH: EVQLQESGPEVAKPGASVKMSCKASGYTFTDYIIHWVKQRPGQDLEWIGYINPYNDKSKYNEKFKDKATLTSDRSSSTSYMDLSTLTSDDSAVYYCTRHGYYRSDGFDYWGQGTTLTVSS
VL: DIVLTQSPTIMSASPGEKVTMTCRASSSVSSSSLHWYQQKPGSSPKLWIYSTSTLASGVPARFSGSGSGTSYSLTISGVETEDAATYYCQQYGTSPYTFGSGTKVDIK
modifications: ssDNA oligonucleotide coupled to the Fab' hinge region
As for B6, the binding result in [18], in [6] and in test [7] was “no binding (tested: 0.5 µg/ml)” throughout.

The koff is a measure of how fast the partners let go of each other. The term Kd denotes the equilibrium constant for the complex coming apart. A higher Kd goes with a looser complex.
